US20250027068
Numbering of substitutions follows the chain as printed.

B1: PRT-529 (protein)
chain: MANQEIRYSEETPKTITSVWTKGVTPPTDFIKNEDVLHAPYIANQGWYDITKTFNGKDDLLCGAATAGNMLHWWFDQNKEEIENYLKKHPEKQKINFNGEQMFDVKEAIDTKDSQTDSALFEYFKDKAFPNLSTKHLGVMPDLVLDMFINGYYLSLGKHGPTPVKRGTKDPRGGIFDAVFTRGDQTKLLTARHDFKEKTLNEISDLIKQELTEGKALALSHTYANVRINHVINLWGADFNSEGNLEAIYVTDSDSNASIGMKKYYVGVNAAGKVAISAKEIEGDNIGAQVLGLFTLSTGQDIWEQTNLEHHHHHH
B2: PRT-2 (protein)
chain: MANQEIRYSEVTPYHVTSVWTKGVTPPAKFTQGEDVFHAPYVANQGWYDITKTFNGKDDLLCGAATAGNMLHWWFDQNKEKIEAYLKKHPDKQKIMFGDQELLDVRKVINTKGDQTNSELFNYFRDKAFPGLSARRIGVMPDLVLDMFINGYYLNVYKTQTTDVNRTYQEKDRRGGIFDAVFTRGDQSKLLTSRHDFKEKNLKEISDLIKKELTEGKALGLSHTYANVRINHVINLWGADFDSNGNLKAIYVTDSDSNASIGMKKYFVGVNSAGKVAISAKEIKEDNIGAQVLGLFTLSTGQDSWNQTN
B3: PRT-39 (protein)
chain: MANQEIRYSEVTPYHVTSVWTKGVTPPANFTQGEDVFHAPYVANQGWYDITKTFNGKDDLLCGAATAGNMLHWWFDQNKDQIKRYLEEHPEKQKINFNGEQMFDVKEAIDTKNHQLDSKLFEYFKEKAFPYLSTKHLGVFPDHVIDMFINGYRLSLTNHGPTPVKEGSKDPRGGIFDAVFTRGDQSKLLTSRHDFKEKNLKEISDLIKQELTEGKALGLSHTYANVRINHVINLWGADFDSNGNLKAIYVTDSDSNASIGMKKYFVGVNSAGKVAISAKEIKEDNIGAQVLGLFTLSTGQDSWNQTN
B4: PRT-40 (protein)
chain: B3 chain with I145L, Q209K
B5: PRT-589 (protein)
chain: MRNQTTTYSEVTPSHITSVWTKGVTPPEQFIQGEDVFHAPYIANQGWYDITKTFNGKDDLLCGAATAGNMLHWWFDQNKEQIENYLKKHPEKQKINFNNEEMFDVREAINTKDSQTDSALFSYFKDKAFPYLSAKHLGVFPDHVIDMFINGYRLSLTNHDKTDVNRGTKDPRGGIFDAVFTRGDQSKLLTARHDFKNKTLKEISDLIKQELTEGKALGLSHTYANVRINHVINLWGADFDAEGNLEAIYVTDSDSNASIGMKKYYVGVNSAGKVAISAKKIEGDNIGAQVLGLFTLSTGQDIWQQTNLEHHHHHH
B6: PRT-277 (protein)
chain: MVTSVWTKGVTPPTDFIYGEDVLHAPYKAGQGWYDITKLFNGKDNLLCGAATAGNMLHWWFDQNKEQIENYLKKHPEKQKIIFNNQELFDLKAAIDTKDSQLDSKLFEYFLEKAFPNLSTKHLGVFPDHVIDMFINGYRLSLLNHGPTPVKRGSKDKRGGIFDAVFTRGVQSKLLTNRHDLKNKTLKEISDLIKQELTEGKALGISHTYANGRINHVINLWGADFDAEGNLEAIAVTDSDTNASIGMKKYFVGVNSSGKVAISAKEIEEDNIGAQVLGLFTLSTGQDIWNQTN
B7: PRT-278 (protein)
chain: B6 chain with E108D, L111K, N117Y, L143T, G212V, A235Y, A243P
B8: PRT-539 (protein)
chain: MANQEIRYSKNENPNVTIKWVHGIGEPTQAEKEKIEFYWYETNTTKFFNNRKVTHLGDSNQCWAKTASNMLHWWFEQNKENINKYIEKKNITGKINFNGEQMFDVKEGIDDNQEKEKSYIANTFRTKKAHNLSTKHKGDYIISGLAWYLYGLNNFKNAHGPTPVKKKPKFYGPALFKDVFNRGDGNTPIKEETDFKEYTKKEFEDILKEALDSKKAIGINIYGSNVGYGHAITLWGAAFDEDNNIIAIYVVDNNFKFENRIFPYGIWYEKEGRPYLFNYEINSFVKNRYVGEITTLDKGEAQWQETNLEHHHHHH
B9: PRT-601 (protein)
chain: MANQEIRYSEETPSTVTSVWTKGVTPPTDFIQNEDVLHAPYIANQGWYDITKTFNGKDDLLCGAATAGNMLHWWFDQNKEQIKNYLKKHPEKQKINFNGEQMFDVKEAIDTKNHQLDSALFEYFKDKAFPYLSTKHLGVFPDHVIDMFINGYRLSLTNHGPTPVKRGTKDPRGGIFDAVFTRGDQSKLLTSRHDFKEKNLNEISDLIKKELTEGKALGLSHTYANVRINHVINLWGADFNANGNLEAIYVTDSDSNASIGMKKYFVGVNSAGKVAISAKEIKGDNIGAQVLGLFTLSTGQDSWNQTNLEHHHHHH
B10: PRT-579 (protein)
chain: MANQEIRYSKATPSHITSVWTKGVTPPENFIYNEDVLHAPYLPNQGWYDITKTFNGKDDLLCGAATAGNMLHWWFDQNKEQIERYLKEHPEKQKINFNGEQMFDVKEAIDTKDSQTNSKLFEYFKDKAFPYLSTKHLGVFPDHVIDMFINGYRLSLTNHGPTPVKEQNKDPRGGIFDAVFTRGDQSKLLTSRHDFKEKTLNEISQLIKQELTEGKALGLSHTYANVRINHVINLWGADFNAEGNLEAIYVTDSDSNASIGMKKYYVGVNSAGKVAISAKEIEGDNIGAQVLGLFTLSTGQDIWQQTNLEHHHHHH
B11: PRT-552 (protein)
chain: MANQEIRYSEETPKTITSVWTKGVTPPTDFIQNEDVLHAPYIANQGWYDITKTFNGKDDLLCGAATAGNMLHWWFDQNKEEIENYLKKHPEKQKINFNGEQMFDVKEAIDTKDSQTDSALFEYFKDKAFPYLSTKHLGVFPDHVIDMFINGYRLSLTNHGPTPVKRGTKDPRGGIFDAVFTRGDQSKLLTARHDFKEKTLNEISDLIKQELTEGKALGLSHTYANVRINHVINLWGADFNSEGNLEAIYVTDSDSNASIGMKKYYVGVNAAGKVAISAKEIEGDNIGAQVLGLFTLSTGQDIWNQTNLEHHHHHH
B12: PRT-597 (protein)
chain: B11 chain with K14S, E81Q, A191S, S241A, E242N, A270S
B13: PRT-558 (protein)
chain: B11 chain with K14S, V19I, D29Q, E80T, K87T, E122S, S186T, N304Q
B14: PRT-285 (protein)
chain: MVTSVWTKGVTPPAKFTQGEDVFHAPYDANQGWYDITKTFNGKDDLLCGAATAGNMLHWWFDQNKEKIEAYLKKHPDKQKIMFGDQELLDVRKVINTKGDQTNSELFNYFRDKAFPGLSARRIGVMPDLVLDMFINGYYLNVYKTQTTDVNRTYQEKDRRGGIFDAVFTRGDQSKLLTSRHDFKEKNLKEISDLIKKELTEGKALGLSHTYANVRISHVINLWGADFDSNGNLKAIYVTDSDSNASIGMKKYGVGVNSAGKVAISAKEIKEDNIGAQVLGLFTLSTGQDSWNQTN
B15: PRT-286 (protein)
chain: B14 chain with G117N, G253F, A259S

Molecular target: pooled human IgG

Protein	Enzyme Activity Endpoint Assay: Fab′2 [ng/µL]	Enzyme Activity Endpoint Assay: Fc [ng/µL]	Enzyme Activity Endpoint Assay: IgG [ng/µL]	Enzyme Activity Endpoint Assay: scIgG [ng/µL]
B1	0	177	508	350
B2	47	94	21	0
B3	39	116	9	19
B4	42	108	14	13
B5	863	352	0	0
B6	19	160	401	705
B7	547	315	0	0
B8	0	0	1400	0
B9	720	529	0	0
B10	816	450	0	0
B11	439	294	45	264
B12	603	315	0	0
B13	700	281	0	0
B14	0	0	1320	0
B15	650	352	0	0
